Results as given in publication PMC6250670.

Target: MucR from Brucella abortus (wild-type full-length protein) (Brucella abortus)
Assay: SEC-MALS

## MucR from Brucella abortus (wild-type full-length protein) (natural protein)
  stoichiometry N: 10.4
